T1: biotinylated recombinant human Angiopoietin-2 (R&D Systems, Inc. Cat. No. BT623) (human, UniProt O15123 19-496, limits assumed, biotinylated (sites not given))
T1 construct: Bought reagent; also called Ang-2; Ang2
T1 sequence (looked up): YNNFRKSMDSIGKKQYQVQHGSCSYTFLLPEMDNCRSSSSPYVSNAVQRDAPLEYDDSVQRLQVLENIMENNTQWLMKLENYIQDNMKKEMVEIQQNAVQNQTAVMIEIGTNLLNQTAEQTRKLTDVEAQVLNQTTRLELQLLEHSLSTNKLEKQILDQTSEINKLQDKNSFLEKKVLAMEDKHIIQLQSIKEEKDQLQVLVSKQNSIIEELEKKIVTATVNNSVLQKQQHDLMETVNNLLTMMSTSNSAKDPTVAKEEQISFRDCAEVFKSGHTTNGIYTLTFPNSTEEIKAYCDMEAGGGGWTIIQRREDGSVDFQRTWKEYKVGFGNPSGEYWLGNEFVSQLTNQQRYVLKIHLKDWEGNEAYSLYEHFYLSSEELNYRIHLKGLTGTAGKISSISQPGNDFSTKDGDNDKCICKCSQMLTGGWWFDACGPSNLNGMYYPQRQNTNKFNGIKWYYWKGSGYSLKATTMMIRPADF

B1: anti-Angiopoietin-2 monoclonal antibody 3.19.3 (antibody, V domains shown)
VH: QVQLVESGGGVVQPGRSLRLSCAASGFTFTNYGMHWGRQAPGKGLEWVAVISHDGNNKYYVDSVKGRFTISRDNSKNTLYLQMNSLRAEDTAVYYCAREGIDFWSGLNWFDPWGQGTLVTVSS
VL: EIVLTQSPGTLSLSPGERATLSCRASQSITGSYLAWYQQKPGQAPRLLICGASSWATGIPDRFSGSGSGTDFTLTISRLEPEDFAVYYCQQYSSSPITFGQGTRLEIKR
notes: Fully human IgG kappa from XenoMouse hybridoma (strains XMG2 and XMG4); IgG purified from hybridoma supernatant
B2: anti-Ang-2 monoclonal antibody 5.103.1 (antibody, V domains shown)
VH: QVQLVQSGAEVKKPGASVKVSCKASGYTFTGYYLYWVPQAPGQGLEWMGWISPNSGGTNYAQKFQGRVTMTRDTSISTAYMELSRLRSDDTAVYYCARDQVIAVAGPFDYWAQGTLVTVSS
VL: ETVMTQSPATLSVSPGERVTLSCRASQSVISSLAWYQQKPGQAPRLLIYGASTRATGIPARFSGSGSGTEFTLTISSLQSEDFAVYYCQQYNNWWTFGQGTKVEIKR
notes: Fully human IgG kappa from XenoMouse hybridoma (strains XMG2 and XMG4); IgG purified from hybridoma supernatant; also called mAb 5.103.1
B3: anti-Ang-2 monoclonal antibody 5.86.1 (antibody, V domains shown)
VH: QVQLVQSGAEVKKPGASVKVSCKASGYTFTGYHMYWVRQAPGQGLEWLGWINPNSGGTNYAQKFQGRVTMTRDTSISTAYMELSRLRSDDTAVYYCVRDQGIAAAGPFDYWCQGTLVTVSS
VL: DIRMTQSPSSLSASVGDRVTITCRASQRISTYLNWYQQKPGKAPKFLIYAASSLQSGVPSRFSGSGSGTDFTLTISSLQPEDFATYYCQQSYTTPFTFGPGTKVDIKR
notes: Fully human IgG kappa from XenoMouse hybridoma (strains XMG2 and XMG4); IgG purified from hybridoma supernatant; also called mAb 5.86.1
B4: anti-Ang-2 monoclonal antibody 5.88.3 (antibody, V domains shown)
VH: EVQMVESGGGLVQPGGSLRLSCAASGFTLRSYWMSWVRQAPGKGLEWVANIKEDGSEKYHVDSVKGRFTISRDNAENSLFLQMSSLRAEDTAVYYCARDMEASAGLFDYWGQGTLVTVSS
VL: EIVMTQSPATLSVSPGERAILSCRASQSISSNLAWYQQKPGQAPRLLIYGASTRATGIPARFSGSGSGTEFTLTISSLQSEDFAVYYCQQYNYWWTFGQGTKVEIKR
notes: Fully human IgG kappa from XenoMouse hybridoma (strains XMG2 and XMG4); IgG purified from hybridoma supernatant; also called mAb 5.88.3
B5: anti-Ang-2 monoclonal antibody 3.31.2 (antibody, V domains shown)
VH: EVQLVESGGGLVQPGGSLRLSCAASGFTFSSYWMSWVRQAPGKGLEWVANIKQDGSDKYYVDSVKGRFTISRDNAKNSLYLRMNSLRAEDTAVFYCARDMGSGWFDYWGQGTLVTVSS
VL: EVVMTQSPATLSVSPGERATLSCRASQSVGSNLAWYQQKPGQAPRLLIYGASTRATGIPARFSGSGSGTEFTLTISSLQSEDFAVYCCQQYNHWWTFGQGTKVEIKR
notes: Fully human IgG kappa from XenoMouse hybridoma (strains XMG2 and XMG4); IgG purified from hybridoma supernatant; also called mAb 3.31.2
B6: anti-Ang-2 monoclonal antibody 3.3.2 (antibody, V domains shown)
VH: EVQLVESGGGLVQPGGSLRLSCAVSGFTFSSYWMSWVRQAPGKGLEWVANIKQDGSEKYYVDSVKGRFTISRDNAKNSLYLQMNSLRAEDTAVYYCARDQGIAVAGPFDYWGQGTLVTVSS
VL: EIVMTQSPATLSVSPGERATLSCRASQTVSSDLAWYQQKPGQAPRLLIYGASIRATGIPARFSGSGSGTEFTLTISSLQSEDFAVYSCQQYYNWWTFGQGTKVEIKR
notes: Fully human IgG kappa from XenoMouse hybridoma (strains XMG2 and XMG4); IgG purified from hybridoma supernatant; also called mAb 3.3.2
B7: anti-Ang-2 monoclonal antibody 5.101.1 (antibody, V domains shown)
VH: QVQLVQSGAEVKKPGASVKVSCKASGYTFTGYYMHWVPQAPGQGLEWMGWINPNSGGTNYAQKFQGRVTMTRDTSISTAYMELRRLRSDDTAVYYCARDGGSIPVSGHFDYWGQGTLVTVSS
VL: EIVMTQSPATLSVSPGERATLSCRASQSLISNLAWYQQKPGQAPRLLIFGASTRATGIPARFSGSGSGTEFTLTISSLQSEDFAVYYCHQYNNWWTFGQGTKVEIKR
notes: Fully human IgG kappa from XenoMouse hybridoma (strains XMG2 and XMG4); IgG purified from hybridoma supernatant; also called mAb 5.101.1
B8: anti-Ang-2 monoclonal antibody 5.28.1 (antibody, V domains shown)
VH: EVQLVESGGIVVQPGGSLRLSCAASGFTFDDYTMHWVRQTPGKGLEWVSLISWDGGSTYYADSVKGRFTISRDNSKNSLYLQMNSLRTEDTALYYCAKDIDIAVAGTGFDHWGQGTLVTVSS
VL: EIVMTQSPATLSVSPGERATLSCRASQSVTSNLAWYQQKPGQAPRLLIYGALIRATGIPARFSGSGSGTEFTLTISSLQSEDFAVYYCQQYNNWPFTFGPGTKVDIKR
notes: Fully human IgG kappa from XenoMouse hybridoma (strains XMG2 and XMG4); IgG purified from hybridoma supernatant; also called mAb 5.28.1

For this test, the target named is T1, biotinylated recombinant human …. The experiment in a line: competitive binding ELISA: biotinylated Angiopoietin-2 on plate-coated Tie-2/Fc, purified mAb. In general terms: In an ELISA, binding on a coated surface is turned into a signal by an enzyme label.
With B1, the “Efficacy (ratio of bound Angiopoietin-2 with mAb (30 µg/ml) versus without mAb)” value stood at 0.395 ratio.
Turning to B2, the “Efficacy (ratio of bound Angiopoietin-2 with mAb (30 µg/ml) versus without mAb)” value worked out at 0.232 ratio.
As to B3, the “Efficacy (ratio of bound Angiopoietin-2 with mAb (30 µg/ml) versus without mAb)” value came out at 0.384 ratio.
In the case of B4 it was 0.403 ratio; in that of B5, 0.375 ratio.
In the case of B6 it was 0.388 ratio; in that of B7, 0.364 ratio.
Regarding B8, the “Efficacy (ratio of bound Angiopoietin-2 with mAb (30 µg/ml) versus without mAb)” value stood at 0.389 ratio.

The values above are taken from patent US20160251421A1 (AstraZeneca / MedImmune, published 2016).
